The record followed here is patent publication US20200283515A1 (HUMANITAS MIRASOLE S P A, published 2020).

Assay [1] concerns the target T1, recombinant human Migration Stimulating Factor (rhMSF) (human, UniProt P02751 32-647).
T1 construct: Secreted by the CHO-3E6 clone; also called hrMSF; human recombinant MSF
The experiment in a line: immunoaffinity chromatography on a column coupled to 1G5.3. As for the experimental part:
Recombinant human MSF was purified from the conditioned medium of CHO-3E6 by immunoaffinity chromatography (IAC). […] The 1G5.3 column was extensively washed at 5 ml/min with buffer A followed by buffer B (50 mM Tris-HCl, 500 mM NaCl, pH 7.00), and bound rhMSF was eluted with buffer C (3.5 M MgCl2) in a total volume of 4 ml. Homogeneity of the eluted protein was assessed using an analytical Superdex 200 10/300 GL gel filtration column (GE Healthcare), equilibrated and eluted at 0.5 ml/min with buffer B on an AKTA Purifier FPLC system. In addition, aliquots of conditioned medium (input), unbound material (flow through) and eluted protein (eluate) from IAC were resolved on NuPAGE Novex Bis-Tris 10% gels (Thermo Fisher Scientific, Waltham, Mass.) under denaturing and reducing conditions (i.e., in the presence of dithiothreitol). […] Membranes were developed with Immobilon western HRP substrate (Merck Millipore, Darmstadt, Germany) and chemiluminescence recorded on a Chemidoc MP system (Bio-Rad). Throughout the purification process, total protein content was determined using a Bradford protein assay (Bio-Rad) and rhMSF specific titres were measured with an ELISA MSF assay made “in-house” as described below.

Assay [2] has as its target T2, human Migration Stimulating Factor (MSF), natural protein in human cancer tissues (human, UniProt P02751 32-647).
T2 construct: Natural MSF as stained in formalin-fixed paraffin-embedded sections of breast and lung cancer; also called human MSF
Nature of the assay: immunohistochemistry on paraffin sections of breast and lung cancer. As for the experimental part: Paraffin-embedded human tissue sections were cut and kept overnight at 37° C. Sections were dewaxed in Bioclear. Antigen unmasking was performed in a Decloaker Chamber in DIVA Buffer 1× (Biocare Medical Cat No: DV2004) for 3 minutes at 125° C. and 5 minutes at 90° C.
After blocking endogenous peroxidases with Peroxidized-1 (Biocare Medical Cat No: PX968) for 15 minutes, non-specific binding sites were blocked with Background Sniper solution (Biocare Medical Cat No: BS966) for 30 minutes. Human tissue samples were then incubated 1 h with 1G5.3 (1/150-1/300) to identify MSF, or with mouse monoclonal anti-human CD68 (Dako Cat No: M0876, clone PG-M1, 780 μg/ml for 1 h) to identify macrophages. […] Then the reactions were developed with 3,3′-Diaminobenzidine tetrahydrochloride (Biocare Medical Cat No: DB801). Slides were counterstained for 3 min with haematoxylin solution.

Assay [3] concerns the target T3, human Fibronectin 1 (hFn1) (human, UniProt P02751 32-2477).
T3 construct: Bought from Calbiochem (Cat No 341635)
The experiment in a line: indirect ELISA, titration of purified 1G5.3 on coated hFn1. The method, then: ELISA plates (Nunc Maxisorb immunoplates Cat. No.: 446612) were coated (0/N at 4° C.) with His-MSF (1-0.5 μg/well), supernatant from CHO-3E6 (50 μl) or hFn1 (1 μg/well), diluted in 15 mM Na carbonate buffer (pH9.6). After coating plates are washed three times with PBS+/+ and 0.05% Tween 20 (washing buffer), then non-specific interactions are blocked by incubation for 2 h at room temperature with 5% (w/v) dry milk in washing buffer. Wells were washed three times with washing buffer, then aliquots of rabbit polyclonal antiserum, supernatants from anti-MSF hybridomas or purified 1G5.3 diluted in washing buffer were added and incubated 1 h at room temperature. Anti-rabbit IgG or anti-mouse IgG labelled with horse-radish peroxidase (Cat No: GENA934 and GENA931 respectively, GE […]) were then added (1/2000 in washing buffer) and incubated 1 h at room temperature. Reaction was developed with 3,3′,5,5′-tetramethylbenzidine (TMB; 1 Step™ ULTRA TMB-ELISA, Thermo Scientific, Rockford, Ill., USA; Cat No: 34019) and stopped with 2N H₂SO₄ before reading absorbance at 450 nm with an automated plate reader (Versamax microplate reader). Baseline was obtained adding anti-MSF antibody on buffer-coated wells.
mAb 1G5.3 was purified from culture supernatant of hybridoma cells by affinity chromatography on Protein-G sepharose. […] The purified antibody was finally analyzed in ELISA. […]
(ELISA stands for enzyme-linked immunosorbent assay.)

The target in assay [4] is T4, biot-VSIPPRNLGY peptide (biot-Ahx-VSIPPRNLGY) (human).
T4 construct: Synthetic; captured on NeutrAvidin-coated plates; also called unique MSF decapeptide; C-terminal unique tail of MSF
T4 peptide: {Biotin-Ahx}-VSIPPRNLGY
The experiment in a line: indirect ELISA, peptide captured on NeutrAvidin, 1G5.3 at 10 ng/ml (FIG. 20A). As for the experimental part:
FIG. 20. Indirect ELISA analysis of the interaction of mAb7.1 and 1G5.3 with biot-[…] and rhMSF. A) The biot-[…] peptide (SEQ ID NO:11) (spanning the aa 648-657 sequence at the C-terminus of human MSF) was captured onto Maxisorb plates that had been coated with NeutrAvidin. […] B) Maxisorb plates were coated with rhMSF, and incubated with mAb7.1 hybridoma cultures or purified 1G5.3. […] Wells containing NeutrAvidin (NeutrAvidin in A) or PBS−/− (PBS in B) only were taken as negative controls. Shown are plots from one out of two independent experiments, each performed in duplicate.
Nunc Maxisorb immunoplates were coated (0/N at 4° C.) with NeutrAvidin protein (1 μg/well; Thermo Scientific, Rockford, Ill., USA; Cat No: 31000) in PBS−/−. Biot-[…] (SEQ ID NO:11) peptide (100 μl/well, 10 μg/ml in PBS+/+ containing 0.05% (v/v) Tween 20, washing buffer) was added and captured on the NeutrAvidin layer for 1 h at room temperature; this allowed N→C orientation of the peptide, thus mimicking its topological organization in the context of the MSF protein [19]. Uncoated sites were blocked by incubation for 2 h at room temperature with 2% (w/v) bovine serum albumin (BSA, Sigma Aldrich; Cat No: A7030) in PBS+/+. […] Each sample was analyzed in duplicate and results were reported as mean±SD.

For assay [5], the target named is T1, recombinant human Migration Stimulating …. The experiment in a line: sandwich ELISA, 1G5.3-F(ab)′2 coated, rhMSF standard curve. The method, then:
To measure MSF levels in biological fluids a sandwich ELISA has been developed. To this aim ELISA plates were incubated O/N at 4° C. with 250 ng/well of 1G5.3 or 500 ng/well of the 1G5.3-F(ab)′2 fragment diluted in PBS−/−, pH 7.0. After coating, plates were washed three times with 300 μl of washing buffer and then blocked with 5% dry milk for 2 h at 37° C. 100 μl of human plasma [informed consents were obtained] diluted 1/10 in washing buffer containing 2% Bovine Serum Albumin were then added and incubated for 1 h at room temperature. In the same plate a standard curve was generated using purified recombinant human MSF. After washing, plates were incubated with commercial biotinylated polyclonal Sheep IgG recognizing human hFn1 (0.25 μg/ml in washing buffer; R&D Cat No: BAF1918) for 1 h at room temperature. Finally, 100 μl of peroxidase-streptavidin (BioSpa Cat No: SB01-161) diluted 1/10000 in washing buffer were added and incubated 1 h at room temperature. Plates were then washed and incubated with 100 μl/well of the chromogenic substrate TMB before blocking with 2N H2SO4. Absorbance was read at 450 nm as described above. Linear regression was used to calculate MSF concentration in plasma samples from the standard curve made with recombinant MSF.
The 1G5.3-F(ab)′2 fragment was then tested in the sandwich ELISA following the same procedure outlined above. […]

Ends that are not written are not given here. * marks the point of attachment. Biotin = O=C1N[C@H]2[C@H](CS[C@H]2CCCCC(=O)*)N1; Ahx = NCCCCCC(=O)O

T1 sequence (P02751 other isoform, or with tags, fused parts or gaps limits assumed): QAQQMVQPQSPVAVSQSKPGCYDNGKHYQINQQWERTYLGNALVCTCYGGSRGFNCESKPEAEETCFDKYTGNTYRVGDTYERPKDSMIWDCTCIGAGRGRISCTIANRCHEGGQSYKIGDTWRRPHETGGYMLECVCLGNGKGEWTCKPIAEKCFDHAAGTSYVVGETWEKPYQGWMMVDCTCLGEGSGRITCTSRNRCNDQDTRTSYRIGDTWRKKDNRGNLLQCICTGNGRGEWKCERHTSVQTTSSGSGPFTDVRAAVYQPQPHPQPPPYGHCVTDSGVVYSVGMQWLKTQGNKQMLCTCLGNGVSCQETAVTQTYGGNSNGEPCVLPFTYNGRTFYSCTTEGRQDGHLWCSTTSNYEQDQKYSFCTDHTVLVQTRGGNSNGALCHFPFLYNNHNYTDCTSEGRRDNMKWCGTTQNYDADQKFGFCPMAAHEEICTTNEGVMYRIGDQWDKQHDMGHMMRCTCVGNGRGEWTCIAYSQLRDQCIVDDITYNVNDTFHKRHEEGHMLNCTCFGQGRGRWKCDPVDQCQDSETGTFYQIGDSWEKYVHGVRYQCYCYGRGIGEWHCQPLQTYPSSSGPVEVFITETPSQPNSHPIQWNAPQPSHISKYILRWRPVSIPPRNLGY
T3 sequence (P02751 other isoform, or with tags, fused parts or gaps limits assumed): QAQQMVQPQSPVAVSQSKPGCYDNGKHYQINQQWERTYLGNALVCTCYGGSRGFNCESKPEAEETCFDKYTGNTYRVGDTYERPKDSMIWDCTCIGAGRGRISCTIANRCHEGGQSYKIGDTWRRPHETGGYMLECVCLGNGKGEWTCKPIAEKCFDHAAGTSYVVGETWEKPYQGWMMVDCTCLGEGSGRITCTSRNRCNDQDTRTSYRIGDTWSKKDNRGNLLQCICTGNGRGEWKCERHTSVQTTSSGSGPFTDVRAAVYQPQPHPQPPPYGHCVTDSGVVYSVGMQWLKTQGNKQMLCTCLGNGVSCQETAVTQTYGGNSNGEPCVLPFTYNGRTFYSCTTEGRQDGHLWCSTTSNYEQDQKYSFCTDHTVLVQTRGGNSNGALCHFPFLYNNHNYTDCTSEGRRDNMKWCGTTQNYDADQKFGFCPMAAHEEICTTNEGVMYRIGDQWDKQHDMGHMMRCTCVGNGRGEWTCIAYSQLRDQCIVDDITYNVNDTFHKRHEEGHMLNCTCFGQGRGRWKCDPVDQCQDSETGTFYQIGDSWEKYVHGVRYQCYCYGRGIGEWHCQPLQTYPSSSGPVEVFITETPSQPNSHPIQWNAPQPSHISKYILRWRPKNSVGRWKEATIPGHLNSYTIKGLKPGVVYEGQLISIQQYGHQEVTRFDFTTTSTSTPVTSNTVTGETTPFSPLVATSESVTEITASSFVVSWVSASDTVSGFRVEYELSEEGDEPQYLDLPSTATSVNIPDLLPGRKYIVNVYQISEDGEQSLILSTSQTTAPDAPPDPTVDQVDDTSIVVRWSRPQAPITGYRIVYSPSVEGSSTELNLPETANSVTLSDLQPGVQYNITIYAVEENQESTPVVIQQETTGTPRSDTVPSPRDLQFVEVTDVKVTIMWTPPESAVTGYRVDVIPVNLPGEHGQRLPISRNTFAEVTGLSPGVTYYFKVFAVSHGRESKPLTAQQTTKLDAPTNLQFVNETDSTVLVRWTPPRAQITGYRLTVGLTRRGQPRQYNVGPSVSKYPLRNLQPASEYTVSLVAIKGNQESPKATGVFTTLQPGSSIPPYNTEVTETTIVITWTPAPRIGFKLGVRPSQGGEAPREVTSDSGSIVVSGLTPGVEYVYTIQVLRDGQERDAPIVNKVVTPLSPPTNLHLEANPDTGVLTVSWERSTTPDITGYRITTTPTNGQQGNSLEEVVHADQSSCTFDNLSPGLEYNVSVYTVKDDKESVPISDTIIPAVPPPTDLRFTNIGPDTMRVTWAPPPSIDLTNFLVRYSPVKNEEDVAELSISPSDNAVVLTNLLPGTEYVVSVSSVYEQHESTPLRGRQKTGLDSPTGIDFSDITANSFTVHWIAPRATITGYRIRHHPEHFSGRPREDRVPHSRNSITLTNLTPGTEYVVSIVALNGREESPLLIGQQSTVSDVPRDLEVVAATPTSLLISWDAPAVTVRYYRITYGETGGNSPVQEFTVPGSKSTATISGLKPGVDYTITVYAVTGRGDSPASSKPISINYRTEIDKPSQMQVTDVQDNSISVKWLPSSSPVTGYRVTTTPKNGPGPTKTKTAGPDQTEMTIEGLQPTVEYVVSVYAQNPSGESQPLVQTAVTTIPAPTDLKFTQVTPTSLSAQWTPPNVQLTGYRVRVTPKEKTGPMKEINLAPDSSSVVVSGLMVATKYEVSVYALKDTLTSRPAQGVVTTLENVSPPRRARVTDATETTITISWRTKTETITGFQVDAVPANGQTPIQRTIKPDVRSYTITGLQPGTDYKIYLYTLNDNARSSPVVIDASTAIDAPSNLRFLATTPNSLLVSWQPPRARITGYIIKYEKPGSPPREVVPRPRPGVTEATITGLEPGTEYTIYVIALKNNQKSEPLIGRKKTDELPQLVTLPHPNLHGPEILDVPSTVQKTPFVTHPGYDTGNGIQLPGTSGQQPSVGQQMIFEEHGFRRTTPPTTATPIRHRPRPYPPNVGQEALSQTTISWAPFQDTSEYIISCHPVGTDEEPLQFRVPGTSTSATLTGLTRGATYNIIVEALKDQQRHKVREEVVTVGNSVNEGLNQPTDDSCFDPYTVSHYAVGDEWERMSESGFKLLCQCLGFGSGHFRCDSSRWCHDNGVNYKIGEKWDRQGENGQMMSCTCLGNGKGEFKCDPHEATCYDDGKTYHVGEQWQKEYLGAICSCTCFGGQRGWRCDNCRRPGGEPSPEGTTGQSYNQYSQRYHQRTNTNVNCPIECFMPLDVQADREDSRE

B1: monoclonal antibody 1G5.3 (antibody, mouse IgG1, kappa, V domains shown)
VH: EVKIEESGGGLVQPGGSMKLSCVASGFTFSNDWMNWVRQSPEKGLEWVAEIRMKSDNYATYYAESVKGRFTISRDDSKNSVYLQMNNLRAEDNGIYYCTSWDYWGQGTTLTVSS
VL: DIVMSQSPSSLAVSTGEKVTMNCRSSHYLLNSRTRKNFLSWYQQKPGQSPQLLIYWASTRYSGVPDRFTGSGSGTDFTLTISSVQAEDLAVYYCKQSYNLHTFGGGTKLEIKR
notes: Mouse IgG1, kappa; Used purified (Protein G) or as hybridoma supernatant; also called mAb 1G5.3; 1G5.3 mAb
Turning to B1, the binding result in assay [1] is reported as “binds”; in assay [2], “binds”; in assay [3], “no binding (tested: 10 µg/ml to 0.005 ng/ml of 1G5.3)”; in assay [4] it was “binds”.

B2: 1G5.3-F(ab)′2 fragment (other, not shown: a dimerising Fc or GST)
heavy: B1 VH
light: DIVMSQSPSSLAVSTGEKVTMNCRSSHYLLNSRTRKNFLSWYQQKPGQSPQLLIYWASTRYSGVPDRFTGSGSGTDFTLTISSVQAEDLAVYYCKQSYNLHTFGGGTKLEIKRADAAPTVSIFPPSSEQLTSGGASVVCFLNNFYPKDINVKWKIDGSERQNGVLNSWTDQDSKDSTYSMSSTLTLTKDEYERHNSYTCEATHKTSTSPIVKSFNRNEC
notes: Made from purified 1G5.3 by pepsin digestion; 110 kDa non-reduced; also called anti-human MSF 1G5.3 F(ab)′2 fragment
In the case of B2, the binding result in assay [5] was “binds”.
